Assay [1] deals with T1, Peptide-4 (human, phosphoserine 210, phosphothreonine 217 (tau 2N4R numbering); SCBiot and dPEG4 at the N-terminus; amide at the C-terminus). As to the kind of experiment: SPR ProteOn, peptide captured, Fab as analyte; Peptide-4, phosphorylated at 210/217. As to the method:
(§1) The binding affinity of PT3 Fab towards each of the fourteen tau phosphopeptides shown in Table 6 was assessed by surface plasmon resonance (SPR) using a Bio-Rad ProteOn XPR36. Peptides were synthesized by standard chemical methods (New England Peptide) with short-chain biotin and a PEG4 moiety at the N-terminus. Biotinylated peptide was captured on a neutravidin-coated NLC biosensor chip and PT3 Fab was flowed over the surface to measure kinetic parameters.
(§2) All experiments were performed at 25° C. using phosphate buffered saline, pH 7.4, 0.005% Tween 20 (PBST) as both running buffer and sample dilution buffer. Prior to running samples, the NLC chip was conditioned by running PBST over the chip surface for 1 h. Approximately 5-10 RU of peptide was captured on the chip surface by diluting peptide to 10 ng/mL in PBST and injecting over the flow channels at 30 μL/min for 100 s. Serial dilutions of PT3 Fab (1.1-90 nM) were analyzed and, with the exception of Peptide-8, each concentration was measured in duplicate. After capture of peptides, the antibody titration was injected at 60 μL/min for 3 minutes (association phase), followed by 300 s of buffer only (dissociation phase).
(§3) The data were double referenced by subtraction of the interspot response and the curves generated by the buffer-only injection. […] The data were analyzed using a simple Langmuir 1:1 binding model.

Assay [2] has as its target T2, Peptide-2 (human, phosphothreonine 212, phosphothreonine 217 (tau 2N4R numbering); short chain biotin (SCBiot) and dPEG4 at the N-terminus; amide at the C-terminus).
T2 construct: also called pT212/pT217-tau peptide (Peptide-2)
As to the kind of experiment: SPR ProteOn, peptide captured, Fab as analyte; range of n=2; upper end of n=2 range. On the procedure: as §1, §2
(§4) The data were double referenced by subtraction of the interspot response and the curves generated by the buffer-only injection. The chip surface was regenerated using a single injection of 0.85% phosphoric acid at 30 μL/min for 100 s contact time, followed by four injections of running buffer before the next antibody titration injection. The data processing and kinetic analysis were done using the instrument software. The data were analyzed using a simple Langmuir 1:1 binding model.

Assay [3] addresses T1, Peptide-4. The assay is described as above. As to the method: as §1, §2, §4
In a further assay the target is Peptide-5 (human, phosphoserine 210, phosphoserine 214, phosphothreonine 217 (tau 2N4R numbering); SCBiot and dPEG4 at the N-terminus; amide at the C-terminus). The assay is described as above. As to the method: as §1, §2, §4
Assay [4] addresses T3, Peptide-6 (human, phosphothreonine 217 (tau 2N4R numbering); SCBiot and dPEG4 at the N-terminus; amide at the C-terminus). The description is as above. On the procedure:
as §1, §2, §4

The next assay has as its target Peptide-7 (human, phosphothreonine 212, phosphoserine 214 (tau 2N4R numbering); SCBiot and dPEG4 at the N-terminus; amide at the C-terminus). The description is as above. On the procedure: as §1, §2, §4
For assay [5], the target named is T2, Peptide-2. The assay can be described thus: SPR ProteOn, peptide captured, Fab as analyte; Peptide-2 (pT212/pT217); peptide mapping run of Table 6, n=2. On the procedure:
as §1, §2, §3

The target of assay [6] is T3, Peptide-6. As to the kind of experiment: SPR ProteOn, peptide captured, Fab as analyte; range of n=2; Peptide-6 (pT217 only); lower end of n=2 range. As to the method:
as §1, §2, §3

The target of assay [7] is T3, Peptide-6. As to the kind of experiment: SPR ProteOn, peptide captured, Fab as analyte; range of n=2; Peptide-6 (pT217 only); upper end of n=2 range. On the procedure: as §1, §2, §3
A further assay deals with T4, Peptide-1 (human, phosphothreonine 212, phosphoserine 214, phosphothreonine 217 (tau 2N4R numbering); short chain biotin (SCBiot) and dPEG4 at the N-terminus; amide at the C-terminus).
T4 construct: also called tau peptide phosphorylated at T212/S214/T217
The assay can be described thus: SPR ProteOn, peptide captured, Fab as analyte; range of n=2; Peptide-1 (pT212/pS214/pT217); upper end of n=2 range. On the procedure:
as §1, §2, §3

The target in assay [8] is T2, Peptide-2. The assay can be described thus: SPR ProteOn, peptide captured, Fab as analyte; Peptide-2 (pT212/pT217); separate run of Table 12 (HFA Fab comparison), n=2. On the procedure:
A subset of HFA-PT3 monoclonal antibody variants, selected based on biophysical characterization and ELISA binding to PHF, were analyzed by Surface Plasmon Resonance (SPR) with a ProteOn XPR36 for binding to the following phosphopeptides: pT212/pT217-tau peptide (Peptide-2, SEQ ID NO: 48) and pT212-tau peptide (Peptide-8, SEQ ID NO: 54). All experiments were performed at 25° C. using PBST, pH 7.4, (Bio-Rad Cat#176-2720) as both running buffer and sample dilution buffer.
Fab/peptide binding. Biotinylated peptide was captured on a neutravidin-coated NLC biosensor chip pre-conditioned with PBST, and Fab was flowed over the surface to measure kinetic parameters. Approximately 5-10 RU of peptide was captured on the chip surface by diluting peptide to 10 ng/mL in PBST and injecting over the flow channels at 30 μL/min for 100 s. Serial dilutions of PT3 Fab (1.1 nM to 90 nM) were injected at 60 μL/min for 3 minutes (association phase), followed by 300 s of buffer only (dissociation phase).
Data were double referenced by subtraction of the interspot response, and the curves generated by the buffer only injection. The chip surface was regenerated with 0.85% phosphoric acid, followed by PBST injection before the next antibody titration injection. Data processing and analysis were performed using instrument software. The data were fit using a simple Langmuir 1:1 binding model.

Consider 1 molecule from patent US20230047413A1 (Janssen / Centocor, published 2023).

For orientation: Kd means a measure of binding affinity in units of concentration. As usually defined, the koff is the first-order rate constant of dissociation. A higher koff goes with a short-lived complex. As usually defined, the kon is the second-order rate constant of association. A high value points to faster complex formation.

T2 sequence (peptide, as listed by the source): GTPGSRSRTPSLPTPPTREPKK

B1: PT3 Fab (B187) (Fab, V domains shown)
VH: EVKLVESGGDLVKPGGSLKLSCAASGFTFSSYAMSWVRQNPEKRLEWVASISKGGNTYYPNSVKGRFTISRDNARNILYLQMSSLRSEDTALYYCARGWGDYGWFAYWGQVTLVTVSA
VL: DIKMTQSPSSMYASLGERVTITCKASQDINRYLNWFQQKPGKSPKTLIYRANRLLDGVPSRFSGSGSGQDYSLTISSLDYEDMGIYYCLQYDEFPLTFGDGTKLELK
notes: Chimeric Fab: mouse variable regions, human IgG1/kappa constant region, 6xHis tag at the C-terminus of the heavy chain; also called mouse parental Fab of PT3
For B1, the Kd is 6.6 nM in the assay with Peptide-4 [1]; 0.27 nM in the assay with Peptide-2 [5]; 10.9 to 11.9 nM in the assay with Peptide-6 [6]; 10.9 to 11.9 nM with Peptide-6 [7]; 0.14 to 0.38 nM with Peptide-1; 0.0874 nM with Peptide-2 [8]. Moreover, the koff in the assay with Peptide-2 [2] was found to be 0.000245 s⁻¹; with Peptide-4 [3], 0.00627 s⁻¹; in the assay with Peptide-5, 0.00598 s⁻¹; with Peptide-6 [4], 0.00625 s⁻¹; with Peptide-7, 0.0056 s⁻¹. In addition, the kon with Peptide-2 [2] worked out at 982000 M⁻¹ s⁻¹; with Peptide-4 [3] it was 968000 M⁻¹ s⁻¹; with Peptide-5, 863000 M⁻¹ s⁻¹; with Peptide-6 [4] it was 558000 M⁻¹ s⁻¹; with Peptide-7 it was 487000 M⁻¹ s⁻¹.
